± gives the standard deviation.
Assay: protein stability index of a GFP-peptide fusion (GPS, HEK-293T) (PSI 1-6); higher = more stable
Conditions: c terminus: a fixed tail appended
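Also: 24-mer peptide tiles fused after GFP, lentivirally expressed, FACS-sorted into six equal bins by GFP/DsRed ratio, decoded by Illumina sequencing, PSI is the read-weighted mean bin number.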

Row | Sequence | protein stability index (treatment: DMSO) | protein stability index (treatment: MLN4924 1 uM, 8 h)
1 | GAGDVVLLQRELAQEDSLNKLALQ [LYSMD4] | 4.29 ± 0.29 | 4.01 ± 0.5
2 | YQAGKPDALTKLEQGEPLWTLEDE [ZNF649] | 4.57 ± 0.17 | 4.6 ± 0.18
3 | LQPEQQLNIYKTLKTHLIEKGILQ [CDS1] | 2.42 ± 0.14 | 2.58 ± 0.4
4 | YPHFSHRPSTLQAASTPQAEEDWT [OAS1] | 4.52 ± 0.27 | 4.76 ± 0.23
5 | PSNGRIDIKQLIAKKIKLTAEAEE [SOAT1] | 3.19 ± 0.59 | 3.33 ± 0.31
6 | EAQLLQLKVKCLNNLAASQLKLDH [FKBP8] | 2.69 ± 0.26 | 2.95 ± 0.23
7 | ESVVKSEDFSLPAYMDRRDHPLPE [COX4I1] | 5.1 ± 0.17 | 4.82 ± 0.098
8 | SFLWQRGRKFLQKHLNASNPTEPA [TOR1AIP2] | 2.86 ± 0.13 | 3.05 ± 0.17
9 | DQERIKVERKRLRNRLAATKCRKR [JUNB] | 4.83 ± 0.19 | 4.53 ± 0.17
10 | PGITRVYSIGRSVEGRHLYVLEFS [CPN1] | 3.12 ± 0.91 | 2.81 ± 0.63
11 | PVGLVMEYMETGSLEKLLASEPLP [RIPK4] | 3.46 ± 0.48 | 3.13 ± 0.22
12 | MVLLTMIARVADGLPLAASMQEDE [SEC22B] | 3.26 ± 0.71 | 2.94 ± 0.2
13 | EHLPVKPDTMEKLRTHIDAIILAL [DENND6A] | 2.64 ± 0.3 | 2.63 ± 0.51
14 | SINTHLGKEQSRRDDLEALGHMFM [CSNK1G3] | 2.81 ± 0.28 | 3.03 ± 0.49
15 | VSLAVTLHRLKFLGFARRNWGNGK [GDAP1] | 2.38 ± 0.41 | 2.33 ± 0.64
16 | LVLRRQLKNKCCPPPCKFGEGKLS [C22orf31] | 2.21 ± 0.31 | 2.52 ± 0.34
17 | LTCDSAQKCHSIGETDEVTKTEDR [ZSCAN9] | 5.27 ± 0.34 | 5.59 ± 0.13
18 | ADDESLLRTSNGQPVKTAGEITQH [DNAAF3] | 5.26 ± 0.35 | 5.26 ± 0.2
19 | PQPDPVFLEALSSRYLGDSGLDDF [SERTAD3] | 4.19 ± 0.47 | 4.08 ± 0.14
20 | ENVLAALEGLNLSILKAMGKTKKD [NECAB1] | 3.12 ± 0.12 | 3.31 ± 0.18
21 | KYNHAACFGLQPGCLLPDGSRMMA [NLN] | 2.59 ± 0.27 | 2.55 ± 0.33
22 | KCPWMEGGEMSPQVETSIEGTIPF [INTS4] | 4.08 ± 0.27 | 4.03 ± 0.2
23 | LVKDNPQRSYFLRIFDIKDGKLLW [WASL] | 1.99 ± 0.28 | 2.05 ± 0.36

Row | Sequence | protein stability index (treatment: DMSO) | protein stability index (treatment: MLN4924 1 uM, 8 h)
24 | VRKEDMTYAVRKLDNTKFRSHEGE [SRSF1] | 4.32 ± 0.13 | 4.13 ± 0.16
25 | AKVKPFDPKITCKQECLITTFQDV [TPH1] | 2.75 ± 0.52 | 2.42 ± 0.52
26 | AARPDVKCVVHIHTPAGAAVSAMK [ADD1] | 2.95 ± 0.28 | 3.11 ± 0.28
27 | IQPSSEGLGPTSEPFPSSDDSPRS [SPAG8] | 5.41 ± 0.21 | 5.35 ± 0.15
28 | ELCCVAELDNPMQQKWTKPARAGS [C2CD2L] | 3.37 ± 0.39 | 3.6 ± 0.2
29 | PVGEPVTNVRLQPAATWNLEEKRL [FCHO1] | 4.52 ± 0.27 | 4.63 ± 0.24
30 | PNDEVHPLLGVKGDGKSKKKQAGR [RBBP5] | 5.35 ± 0.27 | 5.2 ± 0.35
31 | SASHRPCVNGDVDKPSEPASEEGS [SMG5] | 5.49 ± 0.17 | 5.641 ± 0.046
32 | SPHEMLQAVVLCSKKTFQITKQGD [USP39] | 3.34 ± 0.39 | 3.4 ± 0.28
33 | SLYLLLVSCPKSEVRAKFKFSLLN [SPOPL] | 2.56 ± 1.2 | 2.49 ± 0.74
34 | EAWYEDLQEVLSSDENGGTYVSPP [DDIT3] | 4.89 ± 0.11 | 4.93 ± 0.15
35 | VKSHLLDYVMTTLLFSDKNVNSNL [TRIP13] | 3.08 ± 0.36 | 2.79 ± 0.32
36 | MVILISIVIFCLETLPELKDDKDF [KCNA1] | 3.03 ± 0.71 | 2.72 ± 0.52
37 | ERDREREPEAASSRGSPVRVKREF [USP39] | 5.4 ± 0.26 | 5.39 ± 0.17
38 | QKLNPGFDLAKGNAGKVNLPKELP [PLAGL1] | 4.27 ± 0.14 | 4.15 ± 0.3
39 | ADSGADPKGEPGSKQSPPMASSPI [FBF1] | 5.44 ± 0.26 | 5.51 ± 0.15
40 | RDSLTQPDEEPMHYGNIMYDRRVI [RSPH3] | 3.62 ± 0.45 | 3.8 ± 0.23
41 | LVQLEDEITTLRQVLSAKERHLVE [TPD52L1] | 2.85 ± 0.16 | 3.04 ± 0.44
42 | SKSADNQEYFERHRWPPVWYLKEE [RHOBTB1] | 3.4 ± 0.29 | 3.43 ± 0.34
43 | MSELFLHTPSDTGVSFQAISSMAD [PKD2L1] | 3.41 ± 0.15 | 3.61 ± 0.27
44 | PPRGPLAKHRLVPPAQGRVSRRLS [TRIM9] | 4.21 ± 0.27 | 4.16 ± 0.49
45 | LRAIDFGTDEEEEEFIEEEDQEEE [TRIM63] | 5.63 ± 0.15 | 5.65 ± 0.13
46 | ETVVNRIAAGEVIQRPANAIKEMI [MLH1] | 3.17 ± 0.17 | 3.36 ± 0.19

Row | Sequence | protein stability index (treatment: DMSO) | protein stability index (treatment: MLN4924 1 uM, 8 h)
47 | LLSLNSLLPESGIVADIELENVLD [TFE3] | 3.3 ± 0.49 | 3.3 ± 0.19
48 | WDPSPRGCFTLPRSEPIRPIDPAA [DVL3] | 3.98 ± 0.23 | 3.77 ± 0.073
49 | TIKRSSQTGEWQNIAIMTEEPELS [GFOD1] | 4.42 ± 0.33 | 4.26 ± 0.43
50 | SRLRFLNLGRMIDWVPVESLLRPL [ZER1] | 2.16 ± 0.13 | 2.24 ± 0.25
51 | TSTGSAASSGSNSSASSEQGLLGR [SPRY1] | 5.07 ± 0.28 | 5.17 ± 0.099
52 | GRLLFAGYNDYTINVWDVLKGSRV [GNB5] | 2.48 ± 0.58 | 2.18 ± 0.17
53 | PPRPPPRGTPPRRHSFRKHLYLLR [N4BP2L1] | 3.32 ± 0.35 | 3.56 ± 0.23
54 | TVKTHLTSLKTKFPAEQYYRFHEH [TSN] | 2.32 ± 0.25 | 2.44 ± 0.36
55 | YKMDHRRRGIALIFNHERFFWHLT [CASP6] | 2.4 ± 0.72 | 2.2 ± 0.47
56 | IQGQNKEMLAAACQMFLGKTEAEI [FLOT1] | 3.49 ± 0.15 | 3.42 ± 0.33
57 | SDVVGRRSSLLACILLSALGYLLL [MFSD9] | 3.22 ± 0.32 | 3.19 ± 0.26
58 | SDAAFGGILERYWLSSRAAAIKVN [MYORG] | 2.19 ± 0.2 | 2.17 ± 0.21
59 | INRADYCPECYPDNPANRSLVLPW [TOR1AIP2] | 2.29 ± 0.33 | 2.76 ± 0.55
60 | ELGLLIFFLFIGVILFSSAVYFAE [KCNA1] | 2.04 ± 0.53 | 2.06 ± 0.37
61 | KAILEQNFRDLVRDLEKQKEEVRA [TRIM29] | 4.43 ± 0.31 | 4.48 ± 0.24
62 | ALPSSAPSGPPPPPPSVLGVGPVA [WASL] | 4.54 ± 0.15 | 4.82 ± 0.25
63 | ASSASAFLTAPLLEFLLALYFLFA [CMTM3] | 2.34 ± 0.79 | 2.63 ± 0.88
64 | GAAAPATPTPVAAALDACSGNDPF [SNAP91] | 5.18 ± 0.34 | 5.15 ± 0.24
65 | AELQCEVAALREEQKVLSRLVESL [RASAL3] | 4.09 ± 0.23 | 3.94 ± 0.37
66 | CPTLIYRETYPRTPYVRWNYVAKN [SOAT2] | 2.06 ± 0.23 | 2.36 ± 0.39
67 | KMELLILETQAQVCQALAQVDGGA [CPOX] | 2.14 ± 0.52 | 2.18 ± 0.52
68 | NKTLLRLRLRKERVSDVQKVLQGG [PKD2L1] | 2.65 ± 0.23 | 2.94 ± 0.35
69 | HEWKSLAPMDAPRYQHGIAVIGNF [KLHL13] | 2.22 ± 0.2 | 2.17 ± 0.26

Row | Sequence | protein stability index (treatment: DMSO) | protein stability index (treatment: MLN4924 1 uM, 8 h)
70 | RGFMEMNGRGELVESLKRFCASTR [AUP1] | 2.54 ± 0.3 | 2.73 ± 0.18
71 | FQVPVLCAVMNVVFITILIIALIA [CD69] | 2.91 ± 0.36 | 2.96 ± 0.68
72 | TVIHDFLFSLKESPEKFQIEANFP [FAF2] | 2.14 ± 0.37 | 2.03 ± 0.19
73 | LCHCGKAFSHKSMRDRHVNMHLNL [ZBTB22] | 2.21 ± 0.45 | 2.32 ± 0.14
74 | ESPSLTSTPVCSQKVVVTTPLHRD [MYBL2] | 4.83 ± 0.2 | 4.5 ± 0.11
75 | DCVDGLFKEVKEKFKGWVSYSTSE [DLC1] | 3.04 ± 0.5 | 3.33 ± 0.3
76 | ASYSGKAADVWSLGVALFTMLAGH [TRIB3] | 2.99 ± 0.43 | 2.75 ± 0.54
77 | YTPDLPRADVDHAIEKAFQLWSNV [MMP1] | 2.6 ± 0.73 | 2.86 ± 0.77
78 | CPPGGIHQVTVNESLLAPLNVELD [KRT71] | 4.63 ± 0.29 | 4.54 ± 0.23
79 | ITKAFHVRKANRIKECLSKGTFSD [RHOBTB1] | 2.7 ± 0.25 | 2.81 ± 0.51
80 | DELDMSPGDPKWLDVIERDLHRQF [TBC1D10A] | 3.84 ± 0.21 | 3.8 ± 0.12
81 | TNSDVLAQQFALMAPLLFNGCRSG [DCAF4] | 2.23 ± 0.27 | 2.14 ± 0.3
82 | VADRWYSEIKNYNFQQPGFTSGTG [GLIPR2] | 2.61 ± 0.097 | 2.93 ± 0.34
83 | ETRDWGGAQFEGEKGRALQIRDWR [ZSWIM9] | 3.63 ± 0.32 | 3.84 ± 0.15
84 | TGCVLGSSGKVLPKWGWEQLEVTC [POMT2] | 2.07 ± 0.36 | 2.25 ± 0.27
85 | SRLVAGEYLSFFDFSGLTLDGALR [PSD2] | 1.93 ± 0.094 | 2.3 ± 0.29
86 | ITLKYPHYFPVMKKCCIPETRRRM [NLN] | 2.1 ± 0.27 | 1.97 ± 0.37
87 | LHQTVERIHVGKKYGDIPRGIFVV [LSM1] | 2.76 ± 0.59 | 2.59 ± 0.63
88 | LQEPGVFSPTPPQQFQPAGTDQVC [FCHSD1] | 4.25 ± 0.16 | 4.45 ± 0.27
89 | GATLGQTTSEEAVGGATLAQTTSE [HDAC6] | 5.37 ± 0.34 | 5.63 ± 0.31

Source: the supplement of paper PMC10567573
